The target of the assay is fibrinogen complex (FC) component of TISSEEL VH S/D. The experiment in a line: SPR; FC coupled to sensor chip, PDGF-AB as analyte in PBS pH 7.4; KD = Koff/Kon by two methods. Background: In SPR one partner is held on a chip, and binding of the other changes the refractive index at the surface.

Broadly, the Kd is a measure of binding affinity in units of concentration. A low value points to a tighter complex.

“recombinant human PDGF-AB (from UniProt P04085 87-211; P01127 82-190) (ligand)” registered a Kd of 342 nM.
